Experiment: soluble fraction after stress (log2 fold change); higher = more stays soluble; pooled small domains, quantitative proteomics
Settings: stress: pH 4
How it was run: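 Values are log2 fold changes, and higher ones mean more of the domain stayed soluble. Each fold change reflects the soluble amount of a domain after acid stress and is taken as a measure of aggregation propensity. The stress was pH 4, applied to pooled custom libraries of small protein domains analysed by high-throughput quantitative proteomics.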

| Sequence | soluble fraction (log2) |
| --- | --- |
| HMPPAPGHDLTEREREVLRLLVEGLSNQEISDRLVISQSTVKNHVSSVLSKLDAANRAEAVALALKNQL | -0.547 |
| HMPPELSDEVMEEAMSYLKNQYLNHGVKLEDYPALNKLFVDEAFRSEVIRKTQSNYKISYQSAMASLD | -0.928 |
| HMPPENVSVRREQIAEDKKTVYNVWVTKGNKTVLYSKVVYAWGGVYFFRDLNTSISENMYKQADAGLVN | -0.0222 |
| HMPPGQIVNEALQRAGNSTPTGTAISAQDDIKLYTSALAELATQGDTSSASVAKLREALQTAQVAFYNAV | 0.0927 |
| HMPPITIVPNDNGVPIIRSQTPEISTAVNVELKAAGINTHTIDGTSIRVPKAQAQVAQQIVSRVNTRFT | 0.266 |
| HMPPNHADLKSSGLKATLPRLKILEIFQNSQVRHLSAEDVYKLLLAENLDVGLATVYRVLTQFEQAGL | -0.511 |
| HMPPNRDDEHLQALRDYYAANRRIPSLQRVASLLGFSSRSAAVKLMGRLADEGFIERTADDDAWITGKRFF | -0.371 |
| HMPPNVLSEREQEVLQLAADGMSNKEMGSELYIAPTTVRDHMQSIMRKLQVNSRTAAAVAGLKLGLLD | -0.422 |
| HMPPPTLVESAYNHLKADIISSYLKPDEKINLKDLSQRYQVSETPIKQALNRLISEGLIISVPRKGMWVH | 0.065 |
| HMPPPVERAIRKLGHDLSLARRRRRISQDSMAQRMGASVSTVRRIEKGDPRIPIHFIARAMMILGDLKAL | -0.105 |
| HMPQFDRQAFGQRLRLLRDYREMTQQQVANFLNVDRSTYSYYENGKTEPSITVLMRMAELFSVTLDSLLNM | -1.05 |
| HMPQIDLYPFEVRIEQDNNAAEYAVRFLDVPNIIGSGASIDEAIVEARGNLKEYLDYLIDTNRDIPLPS | -1.43 |
| HMPQISQDDLMEAGLIVGKEAKQRRIKLGEILGIGYVNAKQLPKRLQLFQVAKSDFEQAVQQIDG | 0.134 |
| HMPQKSDLTMEEYNKLGLAGGSGSRKLREQVGIRLSVGYGNSKQFYNRLHTFGISLDELKTAVEEVKNG | 0.295 |
| HMPQNVSVPDVTNMTQAEAESKLKEKNLAVGNIIPELSTTVEKDKVTRTNPESGSNVRKNSKVDIYVSQG | 0.327 |
| HMPQPDVIEVRQGIVTGMRPDRRTGWLRDEEDAAGEPKSFSIDVITPKGRTPGKGAVVTYTLTNGKITEVK | 0.143 |
| HMPRELKVRDVSHQHAGHAGWREGGETHFEVDMKADVFAGTSRVAAHRMVNKVLANELASRVHALQLNLS | -0.308 |
| HMPRENLAYTLIMDGIVQHKNLPRASVTEAWLKQELQKAGINDFRQVLIAGIDSKGQLYFQPKQK | -0.392 |
| HMPRPLVAPMPGLIVRVTAVVGDSVDAGQGLVVMEAMKMENELRTTTAGVVKTVHVQPGVAVEKGALLIEF | -0.766 |
| HMPRTEILMVDEEMEGERLDAFVAEQLDELSRSLVKTLIENGEIRVDGKQQKPSYRLKAGEEIIVEIPA | -0.438 |
| HMPSDTNLIGKTGIAYTTLRPGGTALIDDRKVDVVADSEYIEKDKKIKVIRVEGIKVVVTAVK | 0.194 |
| HMPSGRIRWFDAKKGYGFIAGDDGKDVFLPQTALPQGVRNPRKGAKVEYSVIEGNRGQVAMGVTMV | 0.0307 |
| HMPSHALFWTLLKEVPGYDPHYKDVIKEGIVHEHSGGRTTSLSEMYTKYPREYSLMIEAMKG | -0.326 |
| HMPSKTFYNLSQEKQQKIIDASEKEFSNNLYQDVSLNQIIKNSNISRGSFYMYFTDKEDLYFYLLNEY | ≥ 0.43 |
| HMPSLGADIRALRKSRKMTLVALADALGRSVGWLSQVERDKSHATIADLGRMAEVLDVSISSFL | -0.209 |
| HMPSLSAILHDARVAAGLSMRQASAASGLSIGFISMLEQGKVQDISLQRLGRLVTAYDLEPLDVIEAAG | -0.848 |

| Sequence | soluble fraction (log2) |
| --- | --- |
| HMPSSAYGPYKNVFLSNSELTKLKNELPTSWEHYINRLSEYMRSTGRQYQSHAATILRWAATDRNS | 0.0263 |
| HMPSSFLVKVTADALNIRSGPGVANRITGTIKDKGTYTIVDTKDDWGKLKSGVGWIHLGYTKRLD | 0.0923 |
| HMPSSQQVMRRLATVGPDKTLEELQRQHDAHLRKYGEFNDFRGERQQMRQEMERIKEAKQGTGPYAHLMG | -0.0742 |
| HMPTAGYMTVTPDRVKEGQQFLATLRPPYVLKADGLAAGKGVLILPELEEAQRELEEMLGGFLGELSVNR | -0.303 |
| HMPTERLSMRRIRELLRLRFEVGLSTRLIATALGISKGAVGDYLQRAQVAGLGWPLPENLNDAALERRLFP | ≥ 0.43 |
| HMPTGRVVIPLNRLTASDVARILDEAYGRDHNFEVVKPSRLAKGIIVIGPKSEIDGIKELLAH | -0.173 |
| HMPTLLGYKHILSAWNPDTNTVFRTSYGYDGEYGSREEAMQALIKMIQEGGKATPRGIEESEVPIY | 0.0029 |
| HMPTLSKVGSQGEEVRQIQTKLKNWGYLNDRVDGIYGPKTRDAVIWFQKKNGLVADGIAGPATLKAMGIFT | ≥ 0.43 |
| HMPTMVAQINEIVQAKLPGSGLKDYTIRLVESQRDGVVVWVNGTRYLGVDEVAEPQVQALLKEAVAEWERS | -0.942 |
| HMPTQGELAILRVLWEQGPSTVRAVWEKLNSQSGTGYTTALKLMQIMAQKGLVSRDESQKTHVYRA | -0.511 |
| HMPTTRPEAEAHYETHQRYHDLQIDVEGREAFKVATGSLTLVQEFDEKDDYDLSIPTPRSPAILLTT | -0.208 |
| HMPVFYVTGNRVNFRAGPSTGDRVIGSLSQGAAVEVLGPTDDAWINIRDSDGRVGYMSAQFLSQ | -0.213 |
| HMPVLDETVPAALDGERIDRVVALLADVSRNRAGIAIAAGSVRLDGAVVTQRSRKVRADEELVVDGLER | -0.00165 |
| HMPVNEEFKRLIDKIKYEFSINQAQISERLGVKSTYLSDMINGRVPYNESMQKKIHEVFHIG | 0.114 |
| HMPVNGEFIERIKVMVLENKAKGKKERLTKTRMHQLLQEEGYKGSYSAFTHQVRIIEEELGVNQKEAH | 0.235 |
| HMPVSRMRARHEALARGVMGIHAGGFSAVYGYRKVWHGLIGKGWDPGEVGRDQVMNIMRGLGMQGVRR | 0.22 |
| HMPVSVAEQKQILAEALQERGHATFRELIENADNRMIVVGRFLALLELYRDGTVRFEQERALGELTIHWEE | -1.22 |
| HMPYIVNHIHLKSEDPKITADWFVKAFNFEIVSDVVRHFGDRFIVTKAEGGMTINISGVRDGEEL | 0.262 |
| HMPYNNLADAPASWKKLDDTPLTLGQVNWIAKIYDALVAKGMEKGAAAGTAISRFKKSFKVADGKWVQV | 0.173 |
| HMPYNRRYLISNADGALYTVEENGLVKLEETNLTAELFETRGMQDIPDGKLLITLHDPTILYWHDSENLFP | -2.32 |
| HMPYSPTPGSAPARLIAHLQEHGDSVNRTAIAELLQVDRKNVHNYLARAVTHGLLLRHGGGAYSLP | 0.207 |
| HMQADEENPKYPVITDGVIQLEVLESIDKTEEWLVERLAKDGYNNVSEIFIAEYENGNLSIVT | -0.742 |
| HMQADPYTVLGVLRDVTDGELKREYRKLVREHHPDALIAQGVPQEFVDIANNKLAVINAAYERIAKQRGL | -0.293 |
| HMQAGILTDTAAKNARIKKIDTERLEAELDQKRIVIVTGFQGVDRNQNITTLGRGGSDTSAVALAAAVSIT | 0.0198 |
| HMQAKDVEIPNFVGKTLAEANADNKDNFNFVVESKYDASKELGVILEQEPAADSKLVKSGSQITLKV | 0.0557 |
| HMQALDNNDALEEIIKKVITENPSQVTEFRNGKDSLMNFLVGKVMAASGGKANPKTLPETIEKIIK | 0.277 |

| Sequence | soluble fraction (log2) |
| --- | --- |
| HMQAMDYEGFKKEILKMSDIDLSLYKEKQMKRRIDSLIRKNGYEHYEDYVQALKQDSGLYNEFINYLTI | -1.33 |
| HMQANLPFSELLADVDRGLISDVTIKGDQVSGHYTDGRTFNTFIPPEADLVRRLTEKNVRIAAVPD | -0.00341 |
| HMQAPAFDYSKVQEGVTVNHKIFGDGTVSWIDKARKYIRVQFSVGEKMFTMETAFVQGFLSL | -1.03 |
| HMQAPVDPIVLGKMGSSYGIRGWLRVFSSTEDAESIFDYQPWFIQKAGQWQQVQLESWKHHNQDMIIKLN | 0.179 |
| HMQARLPFSFAKRHGVILLAATGEGQSDVIYKSGFDIGALAEVRRFVAGEIALKEVDGPSFDRQLTLTYQN | -1.34 |
| HMQARSQQTIQTLFKAAAQILDKEGEAGLSTNKVAAAAGFSIGTLYQYFPSKEVLIQAMAAR | 0.0662 |
| HMQASISVDEAKSIALNYAKFTADQVVYTKSELDYDDGRAEYEIEFYAGGKEYSFTIDAVSGTVLEMEI | 0.107 |
| HMQATDEEIENFTSSAITAYKLTKEEGYIISMRDMKPIMEIVKTEYPMANGKVVSKVMNNYING | 0.22 |
| HMQDELSSSVIEEAVVVLLLRAANIDGKKDEQEIEAIKRLIIQQFNYDEEKADILITSASEK | -0.191 |
| HMQDGTILPGQKTAIRSLATSGGYDSQDLDTYLATTYGKSIDGLTRTEGADVIKAFQAGTVAK | 0.165 |
| HMQDLEIKINLGMTYYEVREAIGSPDIIDKINQYGRDFQMWTYYIDDKTKRYYFEDHLLTKI | -1.65 |
| HMQDLPPIHLSRGMTDYTLVRSRRRTLSMELKRDGTVVVHAPLRLGVEKIDAFVAAHEAWLARARTRQAER | 0.196 |
| HMQDNPELVARIEKAAARGTSSMSDWERSFMGSLLDSAKKWGRLTAKQHEVFQRIEKKTDPAHQAAVS | 0.0292 |
| HMQDPRITRTRGLILQAFDALLVEKGFHALSVQAIAGRAGINRATFYAHFADKYALLDTSIQE | 0.081 |
| HMQDREKNIAEGRDIIEHEFMRLGISLSRYDLDGLASKLNVKAGDDVLAGVGAGDIRVSQIISQLG | -0.747 |
| HMQDTVKNVFGAFTIFTDKPFAIGDTINVNGLEGTVVDVGMRSTQILGYDRRITSYPNYKITDSSIVNISS | -0.636 |
| HMQDVVFTVDKDQTGAEIGDMLYEKGIISSPTTFRLALRLTGSMDKLQQGYYQIPQNASLRQVIALLQKG | -0.522 |
| HMQDYYTQSDFARYLEDKGIHFPQNKIAVYRKRGKFPKEDLVVAGTPYWSKYTVESFAKHLLEQQN | 0.302 |
| HMQEAATSLNAKILAKLRENNGTLAVSDKSDPALISSLFGVSKGNFKKAIGALYKNGQIVIHADRIEL | 0.00478 |
| HMQEDQKTSIFDIEGVEKGVASVLSSIKVEIVSDLLEADMDDILKSGKISEDDLDGVYEAVQNFVER | -1.28 |
| HMQELNDQQRLAILNEWNNRATNPPSLLELVRVAFPDAEGADGRSWHGKKVKEFLSTRQIKARAS | -0.282 |
| HMQENFYMILESEERRVLDVLVADQPESVATFLKLVSPFPNYKIILEHINEKALDFYEETVI | -0.666 |
| HMQESTILPAQKSAISSLATSAGFSSENLKRYLLQNYGVDLKDLTRSQGAEVIKAFQSGNVSKP | 0.246 |
| HMQETPAMLAMKELPTEDEQRIYMMLQEDYDSVLLVKTIRNAFSQNPQLTRQQLLPIILTWLMT | -1.08 |

Source: the domain aggregation screens of Martell et al. (2025)
